Data reported in patent US20030207838A1.

Target: Fas (CD95) expressed on vascular smooth muscle cells (human) (UniProt P25445)
Test: cell-based or functional assay

Sequence of UniProt P25445 (P25445 26-335): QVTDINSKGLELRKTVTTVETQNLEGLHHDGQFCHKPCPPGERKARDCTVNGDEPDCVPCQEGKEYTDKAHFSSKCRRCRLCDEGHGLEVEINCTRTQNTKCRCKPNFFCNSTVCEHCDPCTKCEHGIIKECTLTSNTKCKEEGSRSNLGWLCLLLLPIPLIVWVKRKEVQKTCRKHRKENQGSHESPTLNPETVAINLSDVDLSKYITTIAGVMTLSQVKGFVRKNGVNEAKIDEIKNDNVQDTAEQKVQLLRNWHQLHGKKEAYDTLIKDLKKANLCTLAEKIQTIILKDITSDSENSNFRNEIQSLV

**Q.** Which results are given for “anti-Fas antibody IgM clone CH-11 (05-201 Upstate)”?
**A.** percent of apoptotic cells (hypodiploid DNA content) 16 h after treatment, A20-expressing SMC: 33%; percent of apoptotic cells (hypodiploid DNA content) 16 h after αFas treatment, non-infected (NI) SMC: 1.9%; percent of apoptotic cells (hypodiploid DNA content) 16 h after αFas treatment, rAd.β-gal-infected SMC: 2.34%; percent of apoptotic cells after αFas with Actinomycin D (150 nM), NI and rAd.β-gal infected SMC: 28 to 35%
